# Data: US11802878B2, “Protein sequencing method and reagents” (The Governing Council of the University of Toronto, priority 2009, dated 2023)
# Columns and labels:
# [1] = system: immobilized biotinylated peptide, N-terminal amino acid C (X-SDGMFTAGSLIGK(biotin)); experiment: Phage ELISA, binding to immobilized peptide, N-terminal C
# Protocol: (§1) Given the discovery that the specificity pocket library was functionally robust, selections against synthetic peptide ligands were carried out using this library. The specificity pocket library was selected against 20 biotinylated peptides, each with a different N-terminal residue atop a common leader sequence (X-SDGMFTAGSLIGK(biotin)) (SEQ ID NO: 4). The peptides were immobilized individually to the bottom wells of a microtiter plate. […] Consequently, ClpS mutant variants that prefer other residues in addition to the ligand ‘bait’ would bind those competing peptides in solution and simply be washed away. Only selective variants that bound to the immobilized target(s) were amplified during each subsequent round of selection.
# (§2) To evaluate the specificity and selectivity of individual clones, both wild-type ClpS and the selected variants' binding to each of the biotinylated peptides independently were tested. The same approach was also used to monitor the progress of the selections and to prioritize particular pools of phage for further investigation.
# (§3) Promising single clones were picked from the selection pools and their specificity was evaluated using the same panel of biotinylated peptides and various amounts of phage supernatant. […] Accordingly, Variant 1 represents a selective N-terminal amino acid capture probe for tryptophan useful for the sequencing methods described herein. Variant 1 also represents a useful scaffold for performing further generation and selection of variants with desirable properties for use as additional N-terminal amino acid capture probes.
# (§4) The selection and ELISA protocols are very similar. Briefly, each well of a 96-well Maxisorp plate was coated overnight at 4° C. with 100 μl of 10 μg/ml neutravidin in PBS, or 1:500 dilution of anti-FLAG antibody. […]
# (§5) For the ELISA readouts, 100 μl of pH adjusted phage supernatant or polyethylene glycol (PEG) precipitated concentrated phage was added to appropriate wells and allowed to bind for 1 hour at 4° C. […] The reaction was stopped by addition of 90 μl of 1M H3PO4 and the absorbance at A450 nm was read.
# [2] = system: immobilized biotinylated peptide, N-terminal amino acid Q (X-SDGMFTAGSLIGK(biotin)); experiment: Phage ELISA, binding to immobilized peptide, N-terminal Q
# Protocol: as §1, §2, §3, §4, §5
# [3] = system: immobilized biotinylated peptide, N-terminal amino acid L (X-SDGMFTAGSLIGK(biotin)); experiment: Phage ELISA, binding to immobilized peptide, N-terminal L
# Protocol: as §1, §2, §3, §4, §5
# [4] = system: immobilized biotinylated peptide, N-terminal amino acid A (X-SDGMFTAGSLIGK(biotin)); experiment: Phage ELISA, binding to immobilized peptide, N-terminal A
# Protocol: as §1, §2, §3, §4, §5
# [5] = system: immobilized biotinylated peptide, N-terminal amino acid H (X-SDGMFTAGSLIGK(biotin)); experiment: Phage ELISA, binding to immobilized peptide, N-terminal H
# Protocol: as §1, §2, §3, §4, §5
# [6] = system: immobilized biotinylated peptide, N-terminal amino acid S (X-SDGMFTAGSLIGK(biotin)); experiment: Phage ELISA, binding to immobilized peptide, N-terminal S
# Protocol: as §1, §2, §3, §4, §5
# [7] = system: immobilized biotinylated peptide, N-terminal amino acid N (X-SDGMFTAGSLIGK(biotin)); experiment: Phage ELISA, binding to immobilized peptide, N-terminal N
# Protocol: as §1, §2, §3, §4, §5
# [8] = system: immobilized biotinylated peptide, N-terminal amino acid E (X-SDGMFTAGSLIGK(biotin)); experiment: Phage ELISA, binding to immobilized peptide, N-terminal E
# Protocol: as §1, §2, §3, §4, §5
# [9] = system: immobilized biotinylated peptide, N-terminal amino acid Y (X-SDGMFTAGSLIGK(biotin)); experiment: Phage ELISA, binding to immobilized peptide, N-terminal Y
# Protocol: as §1, §2, §3, §4, §5
# [10] = system: immobilized biotinylated peptide, N-terminal amino acid M (X-SDGMFTAGSLIGK(biotin)); experiment: Phage ELISA, binding to immobilized peptide, N-terminal M
# Protocol: as §1, §2, §3, §4, §5
# [11] = system: panel of 20 biotinylated peptides, each with a different N-terminal residue (X-SDGMFTAGSLIGK(biotin)); experiment: Phage ELISA specificity profile over the panel of biotinylated peptides; format: binding; conditions: phage displayed; result in words
# Protocol: as §1
# To evaluate the specificity and selectivity of individual clones, both wild-type ClpS and the selected variants' binding to each of the biotinylated peptides independently were tested. […]
# Promising single clones were picked from the selection pools and their specificity was evaluated using the same panel of biotinylated peptides and various amounts of phage supernatant. […]
# as §5
# [12] = system: Leu-peptides; experiment: Phage binding to immobilized peptides or control peptides, ELISA (FIG. 6B); conditions: negative controls BSA, SA, NA
# Excerpt: Selected peptide ligands during were synthesized with C-terminal biotin-lysine residues. The biotinylated peptides were immobilized on neutravidin-coated wells of a microtiter plate by passive adsorption, alongside additional control proteins.
# The ClpS domains were N-terminally FLAG-tagged as shown in FIG. 6A so that display of the recombinant phage coat protein would be detectable (using commercial anti-FLAG antibody), even if the domains were not able to bind ligand. […] The expressed proteins also contained an ST2 secretion signal that is cleaved off and a C-terminal phage coat protein p3 (that is, fused to the C-terminus/residue 106 of E. coli ClpS) as shown in FIG. 6C.
# as §4, with “antibody. Plates were washed three times with PBS+0.50% TWEEN-20 (PT) and blocked for 1 hour at room temperature with 200 ul of PBS+0.5% BSA (PB). Plates were washed again three times with PT.” for “antibody.”
# as §5
# [13] = system: leucine, phenylalanine, tyrosine and tryptophan N-termini; conditions: Schuenemann et al. 2009; Tasaki et al. 2009; cited from earlier work
# [14] = target: Leu-peptide; conditions: reported value, wildtype ClpS:Leu-peptide interaction; read-out: dissociation constant (Kd); cited from earlier work
# [15] = system: immobilized biotinylated peptide, N-terminal amino acid V (X-SDGMFTAGSLIGK(biotin)); experiment: Phage ELISA, binding to immobilized peptide, N-terminal V
# Protocol: as §1, §2, §3, §4, §5
# [16] = system: immobilized biotinylated peptide, N-terminal amino acid K (X-SDGMFTAGSLIGK(biotin)); experiment: Phage ELISA, binding to immobilized peptide, N-terminal K
# Protocol: as §1, §2, §3, §4, §5
molecule,measurement,setting,value
"ClpS WT: truncated wildtype E. coli ClpS polypeptide, 84 amino acids, SEQ ID NO: 1, displayed on phage (protein, listed as Escherichia coli, phage display) KPPSMYKVILVNDDYTPMEFVIDVLQKFFSYDVERATQLMLAVHYQGKAICGVFTAEVAETKVAMVNKYARENEHPLLCTLEKA",phage ELISA binding signal,"[1]; N-terminal C, phage 10X, sub Fab",−0.23
same,phage ELISA binding signal,"[1]; N-terminal amino acid C, Table 1",−0.23
same,phage ELISA binding signal,"[2]; N-terminal Q, phage 10X, sub Fab",−0.18
same,phage ELISA binding signal,"[2]; N-terminal amino acid Q, Table 1",−0.18
same,phage ELISA binding signal,"[3]; N-terminal L, phage 10X, sub Fab",1.57
same,phage ELISA binding signal,"[3]; N-terminal amino acid L, Table 1",1.57
same,phage ELISA binding signal,"[4]; N-terminal A, phage 10X, sub Fab",−0.29
same,phage ELISA binding signal,"[4]; N-terminal amino acid A, Table 1",−0.29
same,phage ELISA binding signal,"[5]; N-terminal H, phage 10X, sub Fab",−0.03
same,phage ELISA binding signal,"[5]; N-terminal amino acid H, Table 1",−0.03
same,phage ELISA binding signal,"[6]; N-terminal S, phage 10X, sub Fab",−0.01
same,phage ELISA binding signal,"[6]; N-terminal amino acid S, Table 1",−0.01
same,phage ELISA binding signal,"[7]; N-terminal N, phage 10X, sub Fab",−0.05
same,phage ELISA binding signal,"[7]; N-terminal amino acid N, Table 1",−0.05
same,phage ELISA binding signal,"[8]; N-terminal E, phage 10X, sub Fab",−0.26
same,phage ELISA binding signal,"[8]; N-terminal amino acid E, Table 1",−0.26
same,phage ELISA binding signal,"[9]; N-terminal Y, phage 10X, sub Fab",1.08
same,phage ELISA binding signal,"[9]; N-terminal amino acid Y, Table 1",1.08
same,phage ELISA binding signal,"[10]; N-terminal M, phage 10X, sub Fab",−0.11
same,phage ELISA binding signal,"[10]; N-terminal amino acid M, Table 1",−0.11
same,binding specificity / preference for N-terminal amino acids,[11],"clear preference for Leu, Tyr, Phe and, more weakly, Trp peptides"
same,binding of phage-displayed ClpS to immobilized peptides,[12]; listed as ClpS from E. coli,"binds two of the Leu-peptides specifically, without cross reactivity to any of the negative controls"
same,binding of phage-displayed ClpS to immobilized peptides,[12]; listed as ClpS from Escherichia coli,able to bind its cognate ligand (immobilized Leucine)
same,affinities,[13],single-digit micromolar to nanomolar
same,Kd,[14],4.8 µM
same,phage ELISA binding signal,"[15]; N-terminal V, phage 10X, sub Fab",−0.09
same,phage ELISA binding signal,"[15]; N-terminal amino acid V, Table 1",−0.09
same,phage ELISA binding signal,"[16]; N-terminal K, phage 10X, sub Fab",0.05
same,phage ELISA binding signal,"[16]; N-terminal amino acid K, Table 1",0.05
